Measured values published in patent publication US20250346669A1.

These substances were tested against CD3 on CD3 expressing Jurkat cells (UniProt P07766) (assay: flow cytometry on CD3 expressing Jurkat cells; concentration of half maximal binding).

Row | EC50 [nM] | Substance
1 | 0.3 | OKT3 (IgG version of the monospecific anti-CD3 antibody)
2 | 23.7 | OKT3 Fab fragment
3 | 0.6 | UCHT1 (IgG version of the monospecific anti-CD3 antibody)
4 | 0.6 | UCHT1 Fab fragment
